Test results taken from the supplement of paper PMC9112550, “Optimization of the antimicrobial peptide Bac7 by deep mutational scanning” (BMC Biology, 2022).

System: Escherichia coli TOP10
Assay: shrunken log2 fold change of peptide-encoding DNA abundance (4.5 h post-induction vs induction); higher = less antimicrobial activity (less host growth inhibition)
Conditions: time post-induction: 4.5 h; library: site-saturation at positions 5, 18, 19, 20
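Further: peptides expressed intracellularly from a pBAD plasmid library in pooled LB shake-flask culture, induced with 0.3% L-arabinose, DNA abundance read by NGS, three biological replicates, DESeq2 with apeglm shrinkage.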

Row | Sequence | shrunken log2 fold change
1 | RRIRCRPPRLPRPRPRPVYIPRP | -0.756
2 | RRIRFRPPRLPRPRPRPSVPPRP | -0.0911
3 | RRIRTRPPRLPRPRPRPFWAPRP | 0.346
4 | RRIRHRPPRLPRPRPRPFHNPRP | -0.305
5 | RRIRKRPPRLPRPRPRPASYPRP | -0.0778
6 | RRIRIRPPRLPRPRPRPPNDPRP | -0.55
7 | RRIRQRPPRLPRPRPRPHSDPRP | 0.0233
8 | RRIRSRPPRLPRPRPRPRWAPRP | 0.158
9 | RRIRKRPPRLPRPRPRPGCDPRP | 0.826
10 | RRIRKRPPRLPRPRPRPCPLPRP | -0.24
11 | RRIRKRPPRLPRPRPRPWWTPRP | 0.0991
12 | RRIRPRPPRLPRPRPRPYEPPRP | -0.317
13 | RRIRMRPPRLPRPRPRPWCNPRP | -0.016
14 | RRIRLRPPRLPRPRPRPPNPPRP | 0.423
15 | RRIRYRPPRLPRPRPRPQRKPRP | -0.263
16 | RRIRVRPPRLPRPRPRPPLMPRP | 0.175
17 | RRIRCRPPRLPRPRPRPTRRPRP | 0.391
18 | RRIRARPPRLPRPRPRPICEPRP | 0.512
19 | RRIRFRPPRLPRPRPRPNIFPRP | -0.229
20 | RRIRFRPPRLPRPRPRPLINPRP | -0.421
21 | RRIRRRPPRLPRPRPRPSHFPRP | -0.262
22 | RRIRCRPPRLPRPRPRPTCNPRP | -0.265
23 | RRIRERPPRLPRPRPRPPAGPRP | 0.589

Row | Sequence | shrunken log2 fold change
24 | RRIRQRPPRLPRPRPRPHSSPRP | -0.271
25 | RRIRDRPPRLPRPRPRPKPHPRP | 0.305
26 | RRIRRRPPRLPRPRPRPQPNPRP | 0.355
27 | RRIRFRPPRLPRPRPRPCGGPRP | 0.12
28 | RRIRDRPPRLPRPRPRPFCAPRP | 0.652
29 | RRIRWRPPRLPRPRPRPWHIPRP | 0.106
30 | RRIRTRPPRLPRPRPRPMTEPRP | -0.0359
31 | RRIRLRPPRLPRPRPRPIFHPRP | -0.192
32 | RRIRIRPPRLPRPRPRPHFGPRP | -0.00693
33 | RRIRNRPPRLPRPRPRPPNMPRP | -0.101
34 | RRIRQRPPRLPRPRPRPQKGPRP | 0.011
35 | RRIRVRPPRLPRPRPRPLLQPRP | 0.0881
36 | RRIRIRPPRLPRPRPRPGQQPRP | 0.0905
37 | RRIRRRPPRLPRPRPRPREWPRP | 1.03
38 | RRIRERPPRLPRPRPRPVPVPRP | 0.0913
39 | RRIRIRPPRLPRPRPRPCWVPRP | -0.451
40 | RRIRNRPPRLPRPRPRPSRQPRP | 0.0744
41 | RRIRPRPPRLPRPRPRPMKNPRP | 0.212
42 | RRIRLRPPRLPRPRPRPVNLPRP | 0.0275
43 | RRIRCRPPRLPRPRPRPKKRPRP | 0.156
44 | RRIRKRPPRLPRPRPRPIIDPRP | -0.139
45 | RRIRSRPPRLPRPRPRPCIFPRP | -0.471
46 | RRIRMRPPRLPRPRPRPMRIPRP | 0.355

Row | Sequence | shrunken log2 fold change
47 | RRIRCRPPRLPRPRPRPWLSPRP | -0.215
48 | RRIRQRPPRLPRPRPRPQHVPRP | 0.00911
49 | RRIRTRPPRLPRPRPRPKVNPRP | -0.168
50 | RRIRMRPPRLPRPRPRPEAMPRP | 0.204
51 | RRIRKRPPRLPRPRPRPNSTPRP | -0.0291
52 | RRIRKRPPRLPRPRPRPVGWPRP | 0.897
53 | RRIRLRPPRLPRPRPRPMKWPRP | 0.0101
54 | RRIRARPPRLPRPRPRPYFGPRP | -0.327
55 | RRIRKRPPRLPRPRPRPTVMPRP | 0.247
56 | RRIRARPPRLPRPRPRPTVWPRP | 0.552
57 | RRIRTRPPRLPRPRPRPQRFPRP | 0.00548
58 | RRIRNRPPRLPRPRPRPYTMPRP | -0.38
59 | RRIRRRPPRLPRPRPRPNNCPRP | 0.129
60 | RRIRYRPPRLPRPRPRPKVCPRP | 0.0165
61 | RRIRLRPPRLPRPRPRPGDYPRP | -0.0616
62 | RRIRPRPPRLPRPRPRPQEAPRP | 0.0203
63 | RRIRWRPPRLPRPRPRPTYMPRP | -0.0572
64 | RRIRNRPPRLPRPRPRPNTEPRP | -0.206
65 | RRIRERPPRLPRPRPRPAMFPRP | -1.09
66 | RRIRMRPPRLPRPRPRPWYMPRP | -0.147
67 | RRIRSRPPRLPRPRPRPYYVPRP | -0.274
68 | RRIRSRPPRLPRPRPRPKQQPRP | 0.741
69 | RRIRMRPPRLPRPRPRPHLDPRP | 0.108

Row | Sequence | shrunken log2 fold change
70 | RRIRPRPPRLPRPRPRPAVVPRP | 0.197
71 | RRIRSRPPRLPRPRPRPRINPRP | -0.301
72 | RRIRVRPPRLPRPRPRPLRGPRP | 0.764
73 | RRIRVRPPRLPRPRPRPCQGPRP | -0.226
74 | RRIRRRPPRLPRPRPRPIPDPRP | 0.277
75 | RRIRMRPPRLPRPRPRPGEGPRP | 1.23
76 | RRIRDRPPRLPRPRPRPYFQPRP | -0.236
77 | RRIRTRPPRLPRPRPRPRGEPRP | 0.152
78 | RRIRERPPRLPRPRPRPYMPPRP | -0.429
79 | RRIRMRPPRLPRPRPRPIRNPRP | 0.00101
80 | RRIRLRPPRLPRPRPRPADIPRP | -0.00142
81 | RRIRDRPPRLPRPRPRPMTDPRP | -0.109
82 | RRIRARPPRLPRPRPRPQCHPRP | 0.441
83 | RRIRARPPRLPRPRPRPAGKPRP | 0.164
84 | RRIRTRPPRLPRPRPRPTGHPRP | 0.131
85 | RRIRHRPPRLPRPRPRPLITPRP | -0.324
86 | RRIRGRPPRLPRPRPRPRSHPRP | 0.239
87 | RRIRPRPPRLPRPRPRPYMMPRP | -0.309
88 | RRIRRRPPRLPRPRPRPRANPRP | 0.954
89 | RRIRTRPPRLPRPRPRPANYPRP | -0.145
90 | RRIRTRPPRLPRPRPRPATVPRP | 0.0426
91 | RRIRYRPPRLPRPRPRPNSLPRP | -1.11
